According to patent US20200069775A1, “BRAIN OSTEOCALCIN RECEPTOR AND COGNITIVE DISORDERS” (The Trustees of Columbia University in the City of New York, priority 2017, published 2020):

Molecular target: T1, Gpr158 (Mus musculus, UniProt Q8C419)
T1 sequence (Q8C419 25-1200): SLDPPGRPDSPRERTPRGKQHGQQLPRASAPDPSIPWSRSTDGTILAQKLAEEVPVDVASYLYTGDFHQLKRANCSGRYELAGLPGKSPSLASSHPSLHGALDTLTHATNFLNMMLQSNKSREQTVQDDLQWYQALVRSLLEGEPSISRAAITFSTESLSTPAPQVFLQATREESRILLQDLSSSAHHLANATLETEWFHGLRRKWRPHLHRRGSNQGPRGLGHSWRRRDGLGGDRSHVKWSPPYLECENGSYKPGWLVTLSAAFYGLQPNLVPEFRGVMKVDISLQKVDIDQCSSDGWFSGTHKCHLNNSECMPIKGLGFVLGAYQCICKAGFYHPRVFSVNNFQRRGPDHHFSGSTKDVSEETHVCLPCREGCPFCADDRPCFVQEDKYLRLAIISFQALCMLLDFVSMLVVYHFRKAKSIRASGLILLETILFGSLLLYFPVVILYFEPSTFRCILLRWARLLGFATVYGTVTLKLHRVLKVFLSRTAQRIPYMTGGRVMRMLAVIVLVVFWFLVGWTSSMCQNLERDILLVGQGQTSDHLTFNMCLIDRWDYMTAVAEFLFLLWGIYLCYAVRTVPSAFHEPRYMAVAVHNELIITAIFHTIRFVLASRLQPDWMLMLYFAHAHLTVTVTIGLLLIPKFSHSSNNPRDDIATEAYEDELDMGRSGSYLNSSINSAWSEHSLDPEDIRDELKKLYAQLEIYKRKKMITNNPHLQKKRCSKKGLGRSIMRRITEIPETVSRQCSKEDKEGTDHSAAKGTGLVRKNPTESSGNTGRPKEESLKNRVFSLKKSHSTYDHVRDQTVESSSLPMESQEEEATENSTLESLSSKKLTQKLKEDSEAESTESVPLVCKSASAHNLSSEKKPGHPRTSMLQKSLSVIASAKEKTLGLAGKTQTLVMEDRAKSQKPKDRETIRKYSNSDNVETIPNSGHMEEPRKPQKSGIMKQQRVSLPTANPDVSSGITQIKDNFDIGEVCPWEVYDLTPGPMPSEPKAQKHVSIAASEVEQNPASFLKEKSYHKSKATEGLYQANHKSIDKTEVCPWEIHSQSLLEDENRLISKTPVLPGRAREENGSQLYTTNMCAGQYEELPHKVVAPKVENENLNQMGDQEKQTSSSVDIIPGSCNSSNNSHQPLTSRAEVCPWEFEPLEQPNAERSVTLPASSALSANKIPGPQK
Experiment: Whole-cell current clamp in CA3 pyramidal neurons of WT and Gpr158−/− hippocampal slices
Type: cell-based
Parameters: visually identified pyramidal neurons in the CA3 area of the hippocampus; from tissue; host or cells: coronal hippocampal slices of 3-4 week old male WT and Gpr158-/- mice
Experimental: Coronal brain slices containing the hippocampus were prepared from wild type and KO mice (3-4 weeks old, male) as previously reporte. Briefly, mice were anesthetized with isoflurane and then decapitated to harvest brains, which were rapidly removed and immersed in an oxygenated cutting solution at 4° C. containing (in mM): sucrose 220, KCl 2.5, CaCl2 1, MgCl2 6, NaH2PO4 1.25, NaHCO3 26, and glucose 10, and adjusted to pH 7.3 with NaOH. Coronal slices containing the hioopcampus (300 μm thick) were cut with a vibratome, trimmed to contain just the hippocampus. After preparation, slices were stored in a holding chamber with an oxygenated (with 5% CO2 and 95% O2) artificial cerebrospinal fluid (ACSF) containing (in mM): NaCl 124, KCl3, CaCl2 2, MgCl2 2, NaH2PO4 1.23, NaHCO3 26, glucose 10, pH 7.4 with NaOH. The slices were eventually transferred to a recording chamber constantly perfused with ACSF at 33° C. at a rate of 2 ml/min after at least a 1 hour recovery in the storage chamber. […] After a stable base of APs were recorded for 10 minutes, osteocalcin was applied to the recorded cells through bath application at a concentration of 10 ng/ml for 5-10 minutes and then washed out with ACSF. […] Action potentials were detected and analyzed with AxoGraph X and plotted with Igor Pro software (WaveMetrics, Lake Oswego, Oreg.).

osteocalcin: Recombinant osteocalcin bacterially produced, cleaved from the GST subunit; completely undercarboxylated at all three sites; full-length mouse osteocalcin (YLGASVPSPDPLEPTREQCELNPACDELSDQYGLKTAYKRIYGITI)
CA3 pyramidal neurons showing the effect on spontaneous AP frequency (WT): 4 of 4 cells
action potential frequency in pyramidal cells of the CA3 region (WT hippocampi, 10 ng/ml): significantly enhanced the action potential frequency
